Assay results published in the DeepSol protein solubility set.

assay: soluble on expression in E. coli; label from the status in PepcDB or PDB records

Sequence | soluble on expression in E. coli
MGSDKIHHHHHHMSKPLNFVMISPHFPANFETFAVRLKECGFNTLGIADTPYEQLSENLRNSLTEYYRVDNMEDYEQVYRAVGYFAHKYGRIDRIESHNEYWLELDAKLRTDFNVPGYKNDDMLAIKTKAQMKEIFRQAGLKVAQGKVFNSDDEARKLAKKLKFPVIIKPNSGVGASDTYKIKSVQELEDFFSYKNAHVEYIMEEFIDGDIITFDGLTDKEGNIVFYSGLEYSECVLDTVENDNDMFYYVPREISTDLIKLGQKCVDAFNVRERFFHFEFFRVKKTGDLMPLEINCRPPGGLTIDMWNYANDFDVFREYANIVKENKFYTNITHPWNVVYISRKANKNYVNAIEDVQQKYSTNIISVQTVPGVFAKIMGEHGILARTETLDQMHEIAQFAQQKA | not soluble
MAHHHHHHMMRSSFVHKAAAAAAGGGMTATSSDHKMASLHKLLTGEVQFRNNALLKTCNIEHNFGATWKSDIEAYAKCLPADERSCLERQVARVMLTRYTTRELAEYCGEGPEHVDAVAREANIAQAKAHAQQYGADKLEAYVKAESKNAGWSEAETKSFLDAVKAAK | soluble
PQFEKIEGRMIRILYLLVKPESMSHEQFRKECVVHFQMSAGMPGLHKYEVRLVAGNPTDTHVPYLDVGRIDAIGECWFASEEQYQVYMESDIRKAWFEHGKYFIGQLKPFVTEELV | soluble
MEFYMKAFNKLFSLVVASVLVFSLAGCGDKEESKKFSANLNGTEIAITYVYKGDKVLKQSSETKIQFASIGATTKEDAAKTLEPLSAKYKNIAGVEEKLTYTDTYAQENVTIDMEKVDFKALQGISGINVSAEDAKKGITMAQMELVMKAAGFKEVK | not soluble
MSLEDTLQAPTPLQIERWLRKQFYSVDRNREDRISAKDLKNMLSQVNYRVPNMRFLRERLTDLEQRSGDITYGQFAQLYRSLMYSAQKTMDLPFLEASTLRAGERPELCRVSLPEFQQFLLDYQGELWAVDRLQVQEFMLSFLRDPLREIEEPYFFLDEFVTFLFSKENSVWNSQLDAVCPDTMNNPLSHYWISSSHNTYLTGDQFSSESSLEAYARCLRMGCRCIELDCWDGPDGMPVIYHGHTLTTKIKFSDVLHTIKEHAFVASEYPVILSIEDHCSIAQQRNMAQYFKKVLGDTLLTKPVEISADGLPSPNQLKRKILIKHKKLAEGSAYDENSPLGDLLRGVLDVPACQIAIRPEGKNNRLFVFSISMASVAHWSLDVAADSQEELQDEGHHHHHH | not soluble
MGSDKIHHHHHHMAVVFPSKEWMEELYKKVNADEEYRRVAANWEGDYLCVVELDEEALRDFQNPKVLRGFLGMLDSIPKEKRERFRGTPSEKLLEALGLSLDSDLSDANVEEIAKKIAENPDKILEAAKGASLNIWMDFWHGDFRNIEVAAPGEHEDAKFKLIGPYAVFKQLVMGKADAITLVVSGKLKLQGDMGYMMRNMATVKKFTDLMASIPIET | not soluble
VVIFFGVILGILIVEYGQKRSFSSWLVEKMFAYRKYKLSKKVDNYKGVETQRNRNIPYHLDNPEEIVGFSTQEYDVNGMQVFIINDQKQSHQPVIYYLYGSVYLRRPEKLHFKTVKHLIQLTNAKVVFPNFPKVPYATYQDVYPKLVEAYQQFCLSNGPSQVSVIGDSSGGGMALAFAKYIRDTKTAPQPKQLILISPWLDVSFKNQAYKDFEAEEAYLDARRLRDIGELWAGGQGNMQLPYVSPLYGDYEDLPEITTFVGTKEIFYPDIMSLHDQLTRQRIANQLIIAEKMIHAYVIFPIREAKQARKQIAELVLKTVEHT | not soluble
GPGSMELSFPDKYYEVAKYFDYYVGNLEESPLLSDAQRLMFYALRQQADHGQCTTAAPSFWNSRERHKHQAWKQLGRMSTFEAMVFFVQQFEQLLTQLENSTGQPASTSGATARAGAVDWPSRLREMKSKMAPSPGNRPHRSEALASDGAHATNDILAVRRGPSPA | soluble
MSLTHSCRLSVAPMLDWTDRHCRYFHRLLSAQTLLYTEMVTTGAIIHGRGDFLAYNQEEHPVALQFGGSNPKDLAHCAKLAQERGYDEINLNVGCPSDRVQNGRFGACLMGEPDLVAECVAAMRAVVDIPVTVKTRIGIDDQDSYEFLTQFIATVAEKGGCEQFTIHARKAWLSGLSPKENREIPPLDYPRAYQIKRDFPHLTIAVNGGVKSLEEAKLHLQHLDGVMIGREAYQNPYLLAEVDQQIFGLETPVKKRSQVIHEMMPYIERELSQGTHLGHMTRHMLGLFQNMPGARQWRRHISENAHKPGAGLEVVEQALAKIPYQELGEGHHHHHH | soluble
MAHHHHHHMNCSSTLACHAVVSAPSTASLITSCWTPQQHCYRQLMKSLRAAYFHDRSKLFWSRHRVLVEFYKYSEEANEEAVKQLVAIGLEVAAFIDHHMRTDVERIVKHNETMMALPVAQAKKFRSDYLLAEKQHDSWCKQKIKNIMKRRPPPPYPFF | not soluble
MAHHHHHHMPTVSSSTPSPASTPTVGVPPGKVWLNADEPNDEYSLFCTEAIPPKVPGTVRIWVDGCFDMLHFGHANALRRARRLGDELFVGCHSDEEVMRFKGPPIMHAEERYEALRACKWVDHVVENYPYCTRLKDIERFEIDYVVHGDDISVDLNGRNSYQEIIDAGKFKVVKRTKGISTTDLVGRMLLCTKNHMLKSVDEVQLENSLLEHSPTMPCLTTSRKIVQFSNNSSPKPGDRIVYVDGSFDLFHIGHIRVLQKARELGDYVIAGVYEDQVVNEHKGKNYPIMSFNERVLGVLSCRYVDEVVMGVPFDVSKDVIDGLHINVVVGDKFSDLVVEEGGSTRYEVPKAMGIYHEVDSGCILSTDSLIDRVVENRLDFLKRQAEKRIKDTKSQEIKPDEYRKLREAS | not soluble
HPKLVSSTPAEGSEGAAPAKIELHFSENLVTQFSGAKLVMTAMPGMEHSPMAVKAAVSGGGDPKTMVITPASPLTAGTYKVDWRAVSSDTFPITGSVTFKVK | soluble
MSLRVMIVDDHGTNRELCRFILAHIASHIDTFEDGQQAIDAMREMEILPDVILLDVMMPIKDGFVTAKEIRQAFVKHHIPIIFLTVLDDRDSFEKCLALGDDFILKPVERSVLIAKVQAHYRIVKMHNEVMEQRDELRHFREQVQYDYAISESIFTNLMEEMCHQVEHIFGIHYISTPSTIFNGDLIVVANRPHGGVYVMIADATGHGLPAAISTIPATRTFFSTAQKGLSLGEMVIELNHSLERFLPVGMMLAASVFEVRANGFEISWWGGGLPEAYLLDHHGNIVSRLISNHMPLGVLPSNEFEADVQHFKLEPNQKLVCYTDGIIEAMNEQGEYFGQERLEHVLTKAYSEALIPTLYDAVKKFSNRGKGDDLSILTMTFPITNSNSSDKALPKVVLSCIPLQTELHFPADVLRKISLMNEVRRFLTGIVSGGEDLDLLCSVLSELFANAIEHGLLELDSSLKETPDGFFEFYQLRDKRLKTLPEYHWLILKVNYQPDKQRIEIDLEHSGKGFDCQALKDASNQKSYGRGILLATQLCESLEYSNQGRRVTAVYSFARKDTLHYSLPSEGHHHHHH | soluble
MGTVHARSMDSYPMYGRDLGVNTDDMEVMEAVQETKQEVLENKDVVVQHVNIEGLGRTKEDYLGYEISDVFTARNLVEVMRKSHEARQRLLRLGIFRDVEVVIDISEGADALPNGLDVTFEVTELKRLTGSYNTMVGNNEGSMVLGIKLPNMLGRGEKLTFQFSYGTKETSYGLSFFKPQSGYFERNFTVNLYKVTGQFPWSSLKETDRGVSTELSLPLWMTDHTLKWEGVWRELGCLARSASFAVREESGHTLKSALSHTMVVDTRNSAILPRKGALLRINQELAGYTGGDANFLKEDVELQLNKQFIWGSVLSASLWGGMIYPLGAQPTSIADRFYLGGPTSVRGFGMYSIGPQSEGDYLGGEAYWAGGLHLYTPLPFRSNKGGLADLFRTHFFLNAGNICNLNYGEGPRAHLQKLAECIRWSYGAGIILRLGNIARLELNYCFPMGVQSGDRICDGVQFGAGIRFL | soluble
MFTYSLNLKLKTDRNFFGPGVVEVLQKIQQTGSLNLAAKEMKMSYNKAWRIVRVAEEELSFPLIIKSVGGCNGGGSIVTDQGKELIDQYLLFEKKVYQQVEACFEEIFKEQDVVSEELK | not soluble
MGSDKIHHHHHHMTTHTKPGLRPANPNFSSGPCAKRPGWSVEALKNAALGRSHRAKIGKTKLEQAIELTREILQVPADHRIGIVPASDTGAVEMALWSLLGERGVDMVAWESFGSGWVTDVVKQLKLPDVRKLEAGYGELPDLAKIDFDRDVVFTWNGTTSGVRVPNGDFIPADRKGLTICDATSAAFAQRLDFEKLDVVTFSWQKVLGGEGAHGMLILSPRAVARLESYKPAWPLPKIFRLTSGGKLIEGIFKGETINTPSMLCVEDYLDALHWAKSIGGLDVLVARADANAAVLDGFVDKSSWLGHLAVQPATRSNTSVCLSFTDPDVAALDADGQATFAKGLVSALDKEGVAYDIGSYRDAPPGLRIWCGATVETSDLETLLPWLDWAFAAQKASLKAAA | not soluble
MSSAAQAYARTAQRTASPREIEAQALLKAAKQLQDVVTNWEEKGAIGLQEALLFNRKLWSIFVTEAMRDDNPQSIEIRQNIANIGVFVMSQSSALQIKPEVERLQALIDINRNIAAGLSGRP | not soluble
MGSDKIHHHHHHMAISVTAEEKQILAGVTIPPRPQALLDISKEAKQEYPDVSKIAKAISEDVGISAAVLQVVNSVAFRRNNQISSIHQAVMTLGIKRIFPLVKAVAIKGALPENPMLNEFWQSSSMVASACTLYANLLGKANLSDNAYMLGLFHNAGVPVMLQAFPAYQALLMRGITEGWGEVASLEVQEFKTSHTTLGALLAQQWELPKPMVEVIYYLHDIDGIFTSGELSEVGLYLLAILKLARSSVDGVIRGECNTDEWLKIQDPLLAFLNLDEVQLDEFREEVAEKLRSEG | not soluble
MSERVCAVIVTYNRKALLRECLKAVLSQTRPPDHVLVVDNASTDGTPEMLQEEFPQVEVLRLPENQGGAGGFHEGMKRAYEQGVDWLWLMDDDTIPKAKALEALLEAARLPLDPRPRVLASRQLLPNGLPHPTTAFVNPTDPRHPFLWLRLRPRYRPIRWALFTSVLLHRSLVEEHGLPHKAFFIWEDDLEYTARALRRGLGLQVRDSEVIHKSASKPYISATTGENRLFYGVRNRIWVLRSPAFGPLGKAFLALQLLFGLLTYLAFHPSQKSLQEIGRALRAGLTTSPCLEHHHHHH | not soluble
MSLEQHGNVVSVGLKLYNEILKETITRFKERRIEKKHSVNVEIENPPGRFFIPEDYVQNPVERLRLYRRLASSLDEEDLEEILEEMKDRFGEPPEEVKLLVDYFRLRVRASKLGIKKIRFDHSMVEIFPSRNSPFLNHPRYDRRSGSVVLYTRKDPVEFLMDMLKKEGHHHHHH | soluble
MSLTPSMRRTRIVCISDTHNCQVKLPEGDVLIHAGDLTNQGSHAELAKTVAWLEKQDFEAKIVIAGNHDITLDPEFYAEHGLYFHNKNPQSHDECLRLFTSSPSITYLSHGSANISLTSPSGPRTHFKVFGSPYSPRHGLWAFYYDAPQNPSNWSDLTSLWESIPLDTDIVVTHTPPRMHCDETDERRATGCEALRQALWRVRPQLVVCGHIHDGRGAERVMWDLNCRNVAYQEESVVRWEDPGQGNNKTCLVDLTGKKAPSEGHHHHHH | soluble
MGSDKIHHHHHHAQYVVTGGSGSPMKASQSSGDSAERLEVYLVYGMDNVTISYTSSSSSSHQWYRYKTKRLEAEKVASTQNGTTSTIRNVEEGYGYFVEEGAVSRYVWIVDYSKYTLNISNLHVSDNSDPCSGLVLAGTGTIQPIYYYWPNTGTRRELSRQFDVIYNTLEYNSDKKEYTSKQETAVIEGNLFGKSIPAPWCDTEICVKGDYFARHFGKEVTLCIDEYQAAAVDAHIDTLLIEQEAPNMNTTKSGYCAPATVQFSAIANTPTAALFNWKIYRQGEEDNPVVRFTGEEVDYTFNQSGTFIIKLEVSDQSTTCSTEDEVQIDISESYLMIPNAFSPGTTPGINDEFRVAYKSLVKFKAWIFNRWGLQMYYWTDPAQGWDGKKGGKYVQPGVYFYVIEAEGSDGIKYKEKGDINILRPKTIQDENENIQE | not soluble
